PMC5645109 (PLoS ONE, 2017)

Molecular target: T1, Torpedo nAChR (extract from the electric organ of Torpedo californica) (Tetronarce californica (Torpedo …, UniProt P02710;P02712;P02714;P02718))
T1 construct: acetylcholine receptor α-subunit, Torpedo californica; acetylcholine receptor β-subunit, Torpedo californica; acetylcholine receptor γ-subunit, Torpedo californica; acetylcholine receptor δ-subunit, Torpedo californica; also called torpedo AChR antigen; source: extract of the electric organ of Torpedo californica (gift, University of Nagasaki); copies: + + +
T1 sequence (P02718 whole entry, looked up, chain 1 of 4): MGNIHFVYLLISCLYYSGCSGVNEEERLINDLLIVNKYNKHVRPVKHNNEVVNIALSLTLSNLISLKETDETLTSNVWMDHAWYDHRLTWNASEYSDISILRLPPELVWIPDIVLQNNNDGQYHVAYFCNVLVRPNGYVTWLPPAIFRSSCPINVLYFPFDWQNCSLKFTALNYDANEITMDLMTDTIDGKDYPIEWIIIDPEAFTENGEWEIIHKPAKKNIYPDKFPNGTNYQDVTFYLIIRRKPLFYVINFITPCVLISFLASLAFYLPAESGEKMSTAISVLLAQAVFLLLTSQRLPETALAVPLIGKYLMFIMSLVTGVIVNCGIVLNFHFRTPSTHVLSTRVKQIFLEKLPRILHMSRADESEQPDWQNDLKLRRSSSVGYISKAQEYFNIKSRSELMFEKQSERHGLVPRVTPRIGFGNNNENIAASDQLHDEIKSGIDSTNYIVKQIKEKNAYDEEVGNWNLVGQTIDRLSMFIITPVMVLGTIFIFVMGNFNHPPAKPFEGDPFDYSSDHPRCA
T1 sequence (P02714 whole entry, looked up, chain 2 of 4): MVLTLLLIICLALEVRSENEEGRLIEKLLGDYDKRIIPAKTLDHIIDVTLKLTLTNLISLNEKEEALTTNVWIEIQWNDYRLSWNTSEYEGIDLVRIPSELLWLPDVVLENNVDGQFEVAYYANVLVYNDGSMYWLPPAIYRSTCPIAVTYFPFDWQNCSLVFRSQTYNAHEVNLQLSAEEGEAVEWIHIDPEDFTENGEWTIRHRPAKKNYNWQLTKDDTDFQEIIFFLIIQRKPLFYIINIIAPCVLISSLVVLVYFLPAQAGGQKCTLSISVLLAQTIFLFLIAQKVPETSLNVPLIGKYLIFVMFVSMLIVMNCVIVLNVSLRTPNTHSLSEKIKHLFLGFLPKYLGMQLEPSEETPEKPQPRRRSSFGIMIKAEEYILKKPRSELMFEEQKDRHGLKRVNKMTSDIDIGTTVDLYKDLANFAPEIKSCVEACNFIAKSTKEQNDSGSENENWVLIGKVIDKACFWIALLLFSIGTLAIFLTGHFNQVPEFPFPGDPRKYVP
T1 sequence (P02712 whole entry, looked up, chain 3 of 4): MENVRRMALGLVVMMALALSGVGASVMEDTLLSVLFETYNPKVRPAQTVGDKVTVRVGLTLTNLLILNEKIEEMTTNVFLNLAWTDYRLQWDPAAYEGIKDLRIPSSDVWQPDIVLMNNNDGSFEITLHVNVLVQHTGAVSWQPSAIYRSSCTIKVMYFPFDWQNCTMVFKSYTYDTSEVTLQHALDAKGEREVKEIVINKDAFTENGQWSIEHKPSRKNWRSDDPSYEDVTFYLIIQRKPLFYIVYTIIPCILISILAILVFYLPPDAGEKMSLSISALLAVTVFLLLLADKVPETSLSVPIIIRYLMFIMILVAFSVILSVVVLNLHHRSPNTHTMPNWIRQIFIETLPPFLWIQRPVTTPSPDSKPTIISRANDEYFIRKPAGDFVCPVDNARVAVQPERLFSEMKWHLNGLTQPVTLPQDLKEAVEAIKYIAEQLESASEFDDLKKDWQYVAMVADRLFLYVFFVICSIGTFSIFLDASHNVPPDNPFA
T1 sequence (P02710 whole entry, looked up, chain 4 of 4): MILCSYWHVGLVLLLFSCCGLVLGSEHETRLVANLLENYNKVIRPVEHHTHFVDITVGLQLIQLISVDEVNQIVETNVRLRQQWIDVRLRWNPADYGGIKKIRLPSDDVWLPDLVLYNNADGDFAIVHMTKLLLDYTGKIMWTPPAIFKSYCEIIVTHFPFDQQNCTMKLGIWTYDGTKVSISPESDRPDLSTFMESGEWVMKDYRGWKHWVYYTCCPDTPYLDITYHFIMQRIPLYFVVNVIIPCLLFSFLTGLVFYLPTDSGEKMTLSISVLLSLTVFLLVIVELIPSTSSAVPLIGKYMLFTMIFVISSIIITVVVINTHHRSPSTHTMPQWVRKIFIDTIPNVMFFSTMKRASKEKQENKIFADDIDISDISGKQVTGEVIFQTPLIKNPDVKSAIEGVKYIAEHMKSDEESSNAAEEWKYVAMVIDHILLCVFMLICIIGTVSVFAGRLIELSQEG
Assay: radio immunoprecipitation assay; extract of the electric organ of Torpedo californica or extract of rat sciatic nerve as antigen; relative binding affinity; method of ref. 54
Details: one partner purified

B1: rat mAb35, anti-nAChR main immunogenic region antibody (rat IgG1) (antibody, V domains shown)
VH: EVQLQESGPGLVQPSETLSLTCTVSGFSLTSYSVSWLRQPSGKGPEWMGRMWDDGGTVYNSGLKSRLSISRDTSKNQVFLKMNSLQTDDTGTYYCTRDERIRAINWFAYWGQGTLVTVSS
VL: DIVITQSPSLLSASVGDRVTLTCKGSQNIDNYLAWYQQKLGEAPKLLIYKTNSLQTGIPSRFSGSGSGTDYTLTISSLHSEDLATYYCYQYINGYTFGTGTKLELK
notes: heavy chain of rat mAb35 (rat IgG1); light chain of rat mAb35; the hybridoma clone is named for the cDNA; also called mAb35 (rat); source: rat Hybridoma
binding result: binds
